In publication PMC2872106:

Key:
κI O18/O8 Y87H (human) [1] = assay: AUC
κI O18/O8 Y87H (human) [2] = assay: NMR titration

Kd (κI O18/O8 Y87H (human) [1]): 420 µM | Kd (κI O18/O8 Y87H (human) [2]): 347 µM
Substance: κI O18/O8 Y87H (domain or fragment)
